Reference: the supplement of paper PMC9170038

Key:
[1] = test system: MS2 coat protein; assay: apparent KD of MS2 coat protein, switch ON state; designed switch direction (-1 OFF switch, 1 ON switch): 1; higher = weaker reporter binding; conditions: FMN input: 0 or 200 uM; Eterna round: R93 (includes R88 designs)
Method in brief: (§1)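 Designed RNA switches were made by on-chip transcription from Illumina sequencing clusters and then titrated with SNAP-549-labelled MS2 coat protein. Twofold steps ran from 0.7 or 1.5 nM to 3 µM, each lasting 0.8–1.5 h early and 10–20 min late, in 100 mM Tris-HCl pH 7.5, 80 mM KCl, 4 mM MgCl2, without or with constant ligand. Apparent KD is the per-design median of normalised cluster binding-curve fits.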

[2] = test system: MS2 coat protein; assay: apparent KD of MS2 coat protein, switch OFF state (with FMN for OFF switches, without FMN for ON switches); designed switch direction (-1 OFF switch, 1 ON switch): 1; higher = weaker reporter binding; conditions: FMN input: 0 or 200 uM; Eterna round: R93 (includes R88 designs)
Method in brief: as §1

Sequence | apparent KD of MS2 coat protein [1] [nM] | apparent KD of MS2 coat protein [2] [nM]
AAAAAACAUGAGGAUCACCCAUGUGAGAACACGGGAGGAUAUACGAAGACGAAAGUCGAAGUAGAAGGCCUAAAAA [Garnet 82] | 21.2 | 75.6
AAUAGGAAGAGAGAGGAUAUCCAAAGGAAAACAUGAGGAUCACCCAUGUAAAAGGUAGGAAAUUGGGAGAAGGCUCAAGAGAGAG [salish99-ss2-073] | 9.55 | 39.9
UAAAAACAUGAGGAUCACCCAUGUAAGAUAAACACAGGAUAUGCGAAAAGAAACAAAGAAGCAGAAGGGUGAAAAU [Mat - Same State 1 - Tesla mod - 44] | 17.3 | 64.8
AAAAAACAUGAGGAUCACCCAUGUGAAAAUAUGGGAGGAUAUACAAAGACGAAAGUCAAAGUAGAAGGCCUAAAAA [Mat - Same State 1 - Eli mod - D86] | 18.4 | 132
AAUGAACAUGAGGAUCACCCAUGUUUUAAUAGUUGAGGAUAUAUGGGUGAAAAUAGCACAGUAGAAGGCGAGUGUA [SameState1 Malc#16] | 144 | 133
AGGAGACAUGAGGAUCACCCAUGUGAGAAGAGGCGAGGAUAUCGAAAGAAAGAAGAGAAACGAGAAGGCGCGAGUC [salish99-SS1-030] | 25.6 | 37
AAAGAAAAACUAGAGGAUAUCUAGAUGAUAACAUGAGGAUCACCCAUGUGAAGAAAGGAAUAUAGGGAGAAGGCUAGAAGAAAAA [JL Nando mod 20] | 21.8 | 28.6
AAACCACAUGAGGAUCACCCAUGUAGAAAUAUGGGAGGAUAUACAAAGACGAAAGUCAAAGUAGAAGGCCUAAAAG [77%, Mat - Mod of Eli, 5] | 31.4 | 97.5
AAUAAAAAUAGUUAGGAUAUGAGAAUUAAGACAUGAGGAUCACCCAUGUAAUUAAAACAAGUAAAUCAGAAGGGACAGGGUGAAA [JR_SS002_Sub204] | 99.4 | 46
AGGAGACAUGAGGAUCACCCAUGUAGAAGGAUGGGAGGAUAUACAAAGACGAGAGUCAGAGUAGAAGGCCUAGGGA [salish99-ss1-183(!)] | 24.2 | 54.1
GAAAAACAUGAGGAUCACCCAUGUAGAAAUAUGGGAGGAUAUACUAAGACGAAAGUCGAUGUAGAAGGCCUAAAAG [Same State 1.4g (Mat - Mod of Eli - )] | 21.6 | 42.8
GAAAAACAUGAGGAUCACCCAUGUAGAAAUAUGGAAGGAUAUACAAAGACGAAACUGAAAGUAGAAGGUCUAAAAG [Garnet 95] | 23.2 | 22.1
AAAUAAAUGACUGAGGAUAUAUCGAUGUGUACAUGAGGAUCACCCAUGUGUGAAUAAAAAGGGUGGUAGAAGGUAGUCAACAAAC [Mod 17 of Pariah 4 by Hyphema in Round 1] | 76.9 | 66.7
GGGAGACAUGAGGAUCACCCAUGUGAGAAGAGGCGAGGAUAUCGAAAGAAAGAAGAGAAACGAGAAGGCGCGAGUC [salish99-SS1-062] | 45.2 | 63.4
UACACGCGGGCGCAGGAUAUGUCGCUGGUGACAUGAGGAUCACCCAUGUAUACCAUUGCGGUUGAGCAGAAGGGUGAGAAGCGUG [Raanlaza] | 20.4 | 56.3
GAAAAACAUGAGGAUCACCCAUGUAGAAAUAUGGGAGGAUAUACAAAGACGAAAGUCAAAGUAGAAGGCCUCAAAG [JL S1 M-MoE mod 2 In the Red] | 84.9 | 78.2
UAUCAUUACACGAAGGAUAUCGAUAAUAGAACAUGAGGAUCACCCAUGUGAAAUAAAAUACAGAACGAGAAGGUCGAGGGUGAAG [JR_SS002_Sub703] | 19.7 | 16.8
GUGGCCCAGGCACAGGAUAUGUUUCUCGUAACAUGAGGAUCACCCAUGUGCCUAUGAGAUUUAAUGCAGAAGGGUGCACGCCACG [Atiinbe] | 16.4 | 342
AAAACACAUGAGGAUCACCCAUGUAAAAACAUGGGAGGAUAUGCAUGAAAAACAUGCUAUGCAGAAGGCUCAUGUG [SS1 - 2] | 29 | 99.1
AGGAAACAUGAGGAUCACCCAUGUAAAAAAGUGGGAGGAUAUGCGAAAAGAAAAAGAAAAGCAGAAGGCCUAAGAA [62%, Something completely different, 6] | 21.9 | 42.7
CAUCAUGCGUCUAAGGAUAUGUCUCACAAGACAUGAGGAUCACCCAUGUAGAAUAAAUAAAUGAUGCAGAAGGUGGAGCGCAUGC [Erzausis] | 53.2 | 283
AAUAAUUAUACGAAGGAUAUCGGUAAUUAGACAUGAGGAUCACCCAUGUAAUAUGGUUAAAUAAUCGAGAAGGUCGAGGGUGAAA [JR_SS002_Sub503] | 55.3 | 42.2

Sequence | apparent KD of MS2 coat protein [1] [nM] | apparent KD of MS2 coat protein [2] [nM]
AAGAAUGUUUACGAGGAUAUGUUCCGCAGAACAUGAGGAUCACCCAUGUGAACAAGAAAGGCGACGCAGAAGGCGUGAGCAAAGA [Laatreve] | 45.7 | 324
UUUAAUUAUACGAAGGAUAUCGGUAAUUAGACAUGAGGAUCACCCAUGUUAUAUGGUUAAAUAUUCGAGAAGGUCGAGGGUGAAA [JR_SS002_Sub506] | 30.2 | 32.1
AAAAUACAUGAGGAUCACCCAUGUGAGAAAAACGCAGGAUAUGCCCGAAAAAAAAGGCGGGCAGAAGGGUGAAAAA [SameState1-II] | 35.5 | 90.4
GGAAGACAUGAGGAUCACCCAUGUGGGAUUAUGGGAGGAUAUACAAAGACGAGAGUCAGAGUAGAAGGCCUAGGAA [salish99-ss1-120(!)] | 28.6 | 79.1
GCAAAACAUGAGGAUCACCCAUGUCAACAAAAUCAAGGAUAUGAGCCGGCAUUGCCGGCAUCAGAAGGUGAACCUU [Gemaisinve] | 96.1 | 129
CAUCAUGCGCCUAAGGAUAUGUCUCACAAGACAUGAGGAUCACCCAUGUAGAAUAAAUAAAUGAUGCAGAAGGUGGAGUGCAUGA [Inares] | 50.6 | 785
AAUAUAUUAAGUGAGGAUAUCAUAGAAAAAACAUGAGGAUCACCCAUGUGGGAAACCUGGUCGGGUGAGAAGGCACUUAAUAUAU [Samwise Clockwise 29 - Jieux - Same State 2] | 71.4 | 704
GGAGAACAUGAGGAUCACCCAUGUCGGAGAAGGCGAGGAUAUCGAAGGAGGAAGGAAGGACGAGAAGGCGCGGCAG [salish99-SS1-01] | 15.9 | 21.4
AGGAGACAUGAGGAUCACCCAUGUGCGAGGUGAAGAGGAUAUAGAAGAAGAAGAAAGAAACUAGAAGGCUUAAAAA [JR_SameState1_Sub1] | 122 | 125
UAACAACAUGAGGAUCACCCAUGUCAAACAGAUCGAGGAUAUGGGCAGGGUUUUCCCUAACUAGAAGGCGAAGACA [Leinxeerri] | 71.1 | 181
AAAUAACAUGAGGAUCACCCAUGUCAAAUAAAUCGAGGAUAUGGGCCCGGGUUCCGGGAGCCAGAAGGCGAAAAGA [Teledimaqu] | 16.9 | 41.6
AAGAAAGUUUACGAGGAUAUGUUCCGCAGAACAUGAGGAUCACCCAUGUGAACAAGAAAGGCGACGCAGAAGGCGUGAGCAAAGA [Anvedi] | 35.9 | 105
AAAUAACAUGAGGAUCACCCAUGUUACGACUUUACAGGAUAUGUGGGUGAAAAUAGCAUGACAGAAGGGUACAGUA [SameState1 Malc#36] | 205 | 112
CGAAAGGAGAGAGAGGAUAUCCAAAGGAAAACAUGAGGAUCACCCAUGUAGAAGGUAGGAGAUUGGGAGAAGGCUCAAGCAAAAG [salish99-ss2-155] | 29 | 26.4
AAAAAACAUGAGGAUCACCCAUGUCGAAAGACAUGAGGAUAUGUACAGACUUCGGUCUGUACAGAAGGCAUGUCAA [SS1 - 1020] | 19.4 | 107
CUUAGGAAGAGAGAGGAUAUCCAAAGGAAAACAUGAGGAUCACCCAUGUAAAAGGUAGGAAAUUGGGAGAAGGCUCAAGAGAGAG [salish99-ss2-080] | 26 | 31.8
AAAAAAAAAACAUAGGAUAUCCGGGCCGGGACAUGAGGAUCACCCAUGUCAAAAAAAAUUGGCCCGGAGAAGGAUGAAAAAAAAAA [SAmeState2-II] | 11.5 | 14
AGGAAACAUGAGGAUCACCCAUGUAAAAAUAUGGGAGGAUAUGCGAAAAGAAACAAAGAAGCAGAAGGCCUAAAAA [75%, Ex sub1, 21] | 21.9 | 66.9
AAUAAUUAUAACGAGGAUAUCCGUAAUAAGACAUGAGGAUCACCCAUGUAAUAAGGGUAAAUAAAGGAGAAGGCGUAGGGUGAAA [JR_SS002_Sub002] | 44.3 | 61.1
GAGGACCUAGGAUAGGAUAUAUGAAUAAUUACAUGAGGAUCACCCAUGUCCAUUUAUAUGGGAACAUAGAAGGGUUCUGGUUAUC [SameState2 Malc#37] | 36.9 | 60.6
UUUAAUUAUACGAAGGAUAUCGGUAAUUAGACAUGAGGAUCACCCAUGUUAUAAGGUUCCAUAUUCGAGAAGGUCGCGGGUGAAC [JR_SS002_Sub509] | 16.1 | 18.2
